Results on 8 molecules are retold here after patent publication US20160347807A1, “TARGETING P53 AND ITS DNA-BINDING DOMAIN” (UNIVERSITY OF UTAH RESEARCH DOUNDATION, priority 2014, published 2016).

Assay type in all cases: cell-based, human
One assay deals with SKOV-3 cells. Briefly: 7-AAD assay in SKOV-3 cells. How it is done:
(§1) Transfected T47D, H1373, SKOV-3 and HeLa cells were pelleted and re-suspended in 500 μL PBS (Invitrogen) containing 1 μM 7-aminoactinomycin D (7-AAD) (Invitrogen) for 30 min prior to analysis. T47D and H1373 cells were analyzed 48 h after transfection, while SKOV-3 and HeLa cells were analyzed 24 h after transfection (time points optimized empirically). Only EGFP positive cells were assayed using the FACS Canto-II (BD-BioSciences) with FACS Diva software as previously. EGFP and 7-AAD were excited at 488 nm, and detected at 507 nm and 660 nm, respectively. Independent transfections of each construct were assayed three times (n=3). The highest value (EGFP positive cells stained with 7-AAD) was set at 100%, and the lowest at 0% (relative 7-AAD) as previously.

The subject of the next assay is HeLa cells. Description: 7-AAD assay in HeLa cells. The note with it: 24 h after transfection. How it is done: (§2) Transfected T47D, MCF-7, MDA-MB-231, HeLa and H1373 cells were pelleted and resuspended in 500 μL PBS (Invitrogen) containing 1 μM 7-aminoactinomycin D (7-AAD) (Invitrogen) for 30 min prior to analysis following the recommended protocol from the manufacturer. The assay was performed 48 h after transfection for T47D, MCF-7 and H1373 and 24 h after transfection for MDA-MB-231 and HeLa. Only EGFP positive cells were analyzed by using the FACS Canto-II (BD-BioSciences) with FACS Diva software. EGFP and 7-AAD were excited with the 488 nm laser, and were detected at 507 nm and 660 nm, respectively. Independent transfections of each construct were tested three times (n=3).
as §1

Assay [1] has as its system T47D cells. Description: 7-AAD assay in T47D cells. The note with it: 48 h after transfection, EGFP positive cells only. How it is done:
as §2, §1

For the next assay, the system named is H1373 cells. Description: 7-AAD assay in H1373 cells. The note with it: H1373 (p53 null), 48 h after transfection. Here is the method:
as §2, §1

Assay [2] has as its system T47D cells. Briefly: Annexin V assay in T47D cells. The note with it: 48 h after transfection. Here is the method:
48 h after transfection, T47D cells were pelleted and resuspended in 400 μL of annexin-V binding buffer (Invitrogen) and incubated with 5 μL of annexin-APC (annexin-V conjugated to allophycocyanin, Invitrogen) for 15 min as before. Only transfected cells were analyzed as mentioned in 7-AAD assay. EGFP and APC were excited at 488 nm and 635 nm wavelengths, respectively and detected at their corresponding 507 nm and 660 nm wavelengths. Independent transfections of each construct were tested three times (n=3).

Assay [3] has as its system T47D cells. Description: Rescue experiment using BFP-Bcl-XL (7-AAD) in T47D cells. The note with it: 48 h after transfection, Bcl-XL overexpression. Here is the method:
T47D cells were co-transfected with 1 pmol of EGFP constructs and 1 pmol of BFP-Bcl-XL (BFP tag is necessary for gating Bcl-XL transfected cells). 48 h after transfection the 7-AAD assay was performed as described above. FACSCanto-II (BD-BioSciences) and FACSDiva software were used for EGFP and BFP gating. Excitation was set at 488 nm, and detected at 507 nm and 660 nm for EGFP and 7-AAD, respectively. BFP was excited at 405 nm and detected at 457 nm. Independent transfections of each construct were tested three times (n=3).

Assay [4] concerns T47D cells. Briefly: TUNEL assay in T47D cells. The note with it: 48 h after transfection. Here is the method:
T47D cells were harvested 48 h after transfection. In situ Death Detection Kit, TMR red (Roche, Mannheim, Germany) was used following manufacturer's recommendations as before. Cells were resuspended in PBS (Invitrogen) and analyzed via the FACSAria-II (BD-Biosciences, University of Utah Core Facility). EGFP and TMR red were excited at 488 nm and 563 nm, respectively, and FACSDiva software was used to analyze the data. Independent transfections of each construct were tested three times (n=3).

“Also recorded” adds a separate entry of the source.

Regarding “DBD-BakMTS: DBD of p53 cloned between EGFP and Bak MTS”, the “7-AAD positive cells (late apoptosis)” value in the assay with SKOV-3 cells (SKOV-3 (p53 null), 24 h after transfection) is “significantly higher than their negative control E-BakMTS; also recorded: trending higher; also recorded: induces late stage apoptosis”; with HeLa cells, “significant from their corresponding negative controls; also recorded: trend of higher apoptotic activity in HeLa cells compared to p53-BakMTS; also recorded: induces robust apoptosis, similar to, or greater than wt p53 with MTS; also recorded: outperformed DBD-BaxMTS; also recorded: induces apoptosis in all 3 cell lines”; in the assay with T47D cells [1] it was “significantly higher apoptosis compared to cells transfected with MTS negative controls; also recorded: trending higher; also recorded: induces robust apoptosis, similar to, or greater than wt p53 with MTS; also recorded: outperformed DBD-BaxMTS; also recorded: induces apoptosis in all 3 cell lines”; in the assay with H1373 cells it was “statistically higher from their negative control E-BakMTS; also recorded: significantly higher activities compared to their positive controls; also recorded: induces robust apoptosis, similar to, or greater than wt p53 with MTS; also recorded: outperformed DBD-BaxMTS; also recorded: induces apoptosis in all 3 cell lines”. In the assay with SKOV-3 cells (ovarian cancer cells SKOV-3), the “apoptosis in SKOV-3 (assay not stated at place)” value is “triggers apoptosis”.

Regarding “DBDK120E-BakMTS: DBD-BakMTS with K120E mutation”, the “7-AAD positive cells (late apoptosis)” value with T47D cells [1] was “not statistically significant from the negative control E-BakMTS”.

As to “p53K120E-BakMTS: p53-BakMTS with K120E mutation”, in the assay on T47D cells [1], the “7-AAD positive cells (late apoptosis)” value is given as “not statistically significant from the negative control E-BakMTS”.

Take “p53m6-BakMTS: p53-BakMTS with K120A, R248A, R273A, R280A, E285A, E287A mutations”: in the assay with T47D cells [1], the “7-AAD positive cells (late apoptosis)” value is reported as “not significantly different from their negative control; also recorded: complete loss in apoptotic activity compared to their non-mutated controls”.

For “p53ΔC-XL: EGFP, p53ΔC (amino acids 1-322, lacks the C-terminus) and XL MTS”, the “7-AAD positive cells (late apoptosis)” value in the assay with T47D cells [1] was “statistically higher than the negative control E-XL; also recorded: not statistically significant from each other”.

B1: PRD-XL: EGFP, proline-rich domain of p53, XL MTS (protein)
chain: APRMPEAAPPVAPAPAAPTPAAPAPAPSWPLSSSVRKGQERFNRWFLTGMTVAGVVLLGSLFSRK
modifications: left off: large carriers
notes: EGFP, proline-rich domain of p53, XL MTS
Take B1: the “Annexin V positive cells (apoptotic potential)” value in the assay on T47D cells [2] was “not statistically significant from the negative control”. The “7-AAD positive cells (late apoptosis)” value was “statistically significant from p53-XL” in the assay with HeLa cells and “not statistically significant from the negative control E-XL indicating no apoptotic activity; also recorded: statistically significantly lower than p53-XL” in the assay with T47D cells [1]. Further, the “apoptotic activity (7-AAD) on cotransfection of BFP-Bcl-XL (rescue)” value with T47D cells [3] is on record as “not altered by Bcl-XL overexpression”. Further, the “TUNEL positive cells (DNA fragmentation)” value in the assay with T47D cells [4] is given as “not statistically different from the negative control; also recorded: statistically significantly lower than p53-XL”.

B2: TD-XL: EGFP, tetramerization domain of p53, XL MTS (protein)
chain: LDGEYFTLQIRGRERFEMFRELNEALELKDAQAGRKGQERFNRWFLTGMTVAGVVLLGSLFSRK
modifications: left off: large carriers
notes: EGFP, tetramerization domain of p53, XL MTS
For the molecule B2, the “Annexin V positive cells (apoptotic potential)” value in the assay with T47D cells [2] was “not statistically significant from the negative control”. Also, the “7-AAD positive cells (late apoptosis)” value in the assay on T47D cells [1] is recorded as “statistically different from the negative controls but is also significantly lower than p53-XL”. Further, the “apoptotic activity (7-AAD) on cotransfection of BFP-Bcl-XL (rescue)” value in the assay with T47D cells [3] is “reduction in apoptotic potential”. The “TUNEL positive cells (DNA fragmentation)” value with T47D cells [4] is listed as “not statistically different from the negative control; also recorded: statistically significantly lower than p53-XL”.

B3: DBDm6-BakMTS: DBD-BakMTS with K120A, R248A, R273A, R280A, E285A, E287A mutations (protein)
chain: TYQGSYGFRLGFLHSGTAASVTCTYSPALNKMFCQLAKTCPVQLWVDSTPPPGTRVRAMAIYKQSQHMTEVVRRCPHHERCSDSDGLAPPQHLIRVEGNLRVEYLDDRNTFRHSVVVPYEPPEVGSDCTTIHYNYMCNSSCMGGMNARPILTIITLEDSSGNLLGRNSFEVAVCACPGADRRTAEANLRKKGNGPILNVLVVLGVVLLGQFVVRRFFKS
modifications: left off: large carriers
notes: DBD-BakMTS with K120A, R248A, R273A, R280A, E285A, E287A mutations
Regarding B3, the “7-AAD positive cells (late apoptosis)” value in the assay with T47D cells [1] is recorded as “not significantly different from their negative control; also recorded: complete loss in apoptotic activity compared to their non-mutated controls”.
